The source of these data is patent US10064929B2, “Peptides and combination of peptides for use in immunotherapy against breast cancer and other cancers” (immatics biotechnologies GmbH, priority 2015, dated 2018).

Square brackets hold non-standard residues; d marks the D form. Ends that are not written are not given here. pT = C[C@@H](OP(=O)(O)O)[C@H](N)C(=O)O

For the first assay, the system named is CD8+ T cells. Put plainly: In vitro T-cell priming with aAPCs loaded with peptide/MHC complexes and anti-CD28 antibody, pMHC multimer readout. As to conditions: HLA class I peptides; CD8+ T cells of healthy HLA-A*02 donors. The class given is cell-based, human. The text has this: In order to obtain information regarding the immunogenicity of the TUMAPs of the present invention, the inventors performed investigations using an in vitro T-cell priming assay based on repeated stimulations of CD8+ T cells with artificial antigen presenting cells (aAPCs) loaded with peptide/MHC complexes and anti-CD28 antibody.
In order to perform in vitro stimulations by artificial antigen presenting cells loaded with peptide-MHC complex (pMHC) and anti-CD28 antibody, the inventors first isolated CD8+ T cells from fresh HLA-A*02 leukapheresis products via positive selection using CD8 microbeads (Miltenyi Biotec, Bergisch-Gladbach, Germany) of healthy donors obtained from the University clinics Mannheim, Germany, after informed consent.
PBMCs and isolated CD8+ lymphocytes were incubated in T-cell medium (TCM) until use consisting of RPMI-Glutamax (Invitrogen, Karlsruhe, Germany) supplemented with 10% heat inactivated human AB serum (PAN-Biotech, Aidenbach, Germany), 100 U/ml Penicillin/100 μg/ml Streptomycin (Cambrex, Cologne, Germany), 1 mM sodium pyruvate (CC Pro, Oberdorla, Germany), 20 μg/ml Gentamycin (Cambrex). 2.5 ng/ml IL-7 (PromoCell, Heidelberg, Germany) and 10 U/ml IL-2 (Novartis Pharma, Nürnberg, Germany) were also added to the TCM at this step.
Generation of pMHC/anti-CD28 coated beads, T-cell stimulations and readout was performed in a highly defined in vitro system using four different pMHC molecules per stimulation condition and 8 different pMHC molecules per readout condition.
The purified co-stimulatory mouse IgG2a anti human CD28 Ab 9.3 (Jung et al., 1987) was chemically biotinylated using Sulfo-N-hydroxysuccinimidobiotin as recommended by the manufacturer (Perbio, Bonn, Germany). Beads used were 5.6 μm diameter streptavidin coated polystyrene particles (Bangs Laboratories, Illinois, USA).
800.000 beads/200 μl were coated in 96-well plates in the presence of 4×12.5 ng different biotin-pMHC, washed and 600 ng biotin anti-CD28 were added subsequently in a volume of 200 μl. Stimulations were initiated in 96-well plates by co-incubating 1×10^6 CD8+ T cells with 2×10^5 washed coated beads in 200 μl TCM supplemented with 5 ng/ml IL-12 (PromoCell) for 3 days at 37° C. Half of the medium was then exchanged by fresh TCM supplemented with 80 U/ml IL-2 and incubating was continued for 4 days at 37° C.
This stimulation cycle was performed for a total of three times. For the pMHC multimer readout using 8 different pMHC molecules per condition, a two-dimensional combinatorial coding approach was used as previously described (Andersen et al., 2012) with minor modifications encompassing coupling to 5 different fluorochromes. Finally, multimeric analyses were performed by staining the cells with Live/dead near IR dye (Invitrogen, Karlsruhe, Germany), CD8-FITC antibody clone SK1 (BD, Heidelberg, Germany) and fluorescent pMHC multimers. For analysis, a BD LSRII SORP cytometer equipped with appropriate lasers and filters was used. Peptide specific cells were calculated as percentage of total CD8+ cells. Evaluation of multimeric analysis was done using the FlowJo software (Tree Star, Oregon, USA). In vitro priming of specific multimer+ CD8+ lymphocytes was detected by comparing to negative control stimulations.
Consider “TLSSIKVEV (listed as Homo sapiens) [SEQ ID NO: 50]”, for which the “wells (in vitro immunogenicity, positive wells)” value was “+ (<20% = +)”.

As to “SLYKGLLSV (listed as Homo sapiens) [SEQ ID NO: 51]”, the “wells (in vitro immunogenicity, positive wells)” value was “++ (20%-49% = ++)”.

Turning to “ILFPDIIARA (listed as Homo sapiens) [SEQ ID NO: 66]”, the “wells (in vitro immunogenicity, positive wells)” value is given as “++ (20%-49% = ++)”.

The same assay, now with this note: HLA-A*02 restricted peptides; positive wells among evaluable; healthy donors.
In the case of “YIDGLESRV (listed as Homo sapiens) [SEQ ID NO: 22]”, the “Wells positive [%] (in vitro immunogenicity)” value (shortened to “Wells positive [%]”) was ““+” (<20% = +)”.

“KMPEHISTV (listed as Homo sapiens) [SEQ ID NO: 1]”: the “Wells positive [%]” value is listed as ““+” (<20% = +)”.

Turning to “SLLTEPALV (listed as Homo sapiens) [SEQ ID NO: 21]”, the “Wells positive [%]” value is given as ““++” (20%-49% = ++)”.

Turning to “SLADAVEKV (listed as Homo sapiens) [SEQ ID NO: 23]”, the “Wells positive [%]” value was ““+++” (50%-69% = +++)”.

For “GLLGFQAEA (listed as Homo sapiens) [SEQ ID NO: 24]”, the “Wells positive [%]” value is ““++” (20%-49% = ++)”.

For another assay, the target named is HLA-A*02:01 (Homo sapiens, UniProt P04439, D140Y/D185E/D98H/E176V/E277Q/G131W/G231S/I119V/I121R/I166T/I218V/L300P/L318F/N151K/N90K/P208A/P217A/Q86G/Q94H/R138H/R169H/T345S). Put plainly: MHC binding assay: UV-ligand exchange with β2m ELISA. Particulars: binding to HLA-A*02:01. The source says:
Candidate peptides for T cell based therapies according to the present invention were further tested for their MHC binding capacity (affinity). The individual peptide-MHC complexes were produced by UV-ligand exchange, where a UV-sensitive peptide is cleaved upon UV-irradiation, and exchanged with the peptide of interest as analyzed. Only peptide candidates that can effectively bind and stabilize the peptide-receptive MHC molecules prevent dissociation of the MHC complexes. To determine the yield of the exchange reaction, an ELISA was performed based on the detection of the light chain (β2m) of stabilized MHC complexes. The assay was performed as generally described in Rodenko et al. (Rodenko et al., 2006).
96 well MAXISorp plates (NUNC) were coated over night with 2 ug/ml streptavidin in PBS at room temperature, washed 4× and blocked for 1 h at 37° C. in 2% BSA containing blocking buffer. Refolded HLA-A*02:01/MLA-001 monomers served as standards, covering the range of 15-500 ng/ml. Peptide-MHC monomers of the UV-exchange reaction were diluted 100-fold in blocking buffer. Samples were incubated for 1 h at 37° C., washed four times, incubated with 2 ug/ml HRP conjugated anti-β2m for 1 h at 37° C., washed again and detected with TMB solution that is stopped with […]. Absorption was measured at 450 nm. Candidate peptides that show a high exchange yield (preferably higher than 50%, most preferred higher than 75%) are generally preferred for a generation and production of antibodies or fragments thereof, and/or T cell receptors or fragments thereof, as they show sufficient avidity to the MHC molecules and prevent dissociation of the MHC complexes.
As to “TLLGLAVNV (listed as Homo sapiens) [SEQ ID NO: 36]”, the “Peptide Exchange (MHC class I binding score, peptide exchange yield)” value (from here on “Peptide Exchange”) was ““++++” (≥75% = ++++)”.

“FSFPVSVGV (listed as Homo sapiens) [SEQ ID NO: 20]”: the “Peptide Exchange” value is given as ““+++” (≥50 = +++)”.

As to “YIDGLESRV (listed as Homo sapiens) [SEQ ID NO: 22]”, the “Peptide Exchange” value is given as ““+++” (≥50 = +++)”.

For the sequence “ILFDVVVFL (listed as Homo sapiens) [SEQ ID NO: 25]”, the “Peptide Exchange” value is reported as ““++” (≥20% = ++)”.

Consider “KQLELELEV (listed as Homo sapiens) [SEQ ID NO: 14]”, for which the “Peptide Exchange” value is ““+++” (≥50 = +++)”.

With “ILTELPPGV (listed as Homo sapiens) [SEQ ID NO: 33]”, the “Peptide Exchange” value is recorded as ““++” (≥20% = ++)”.

Take “SLAEPRVSV (listed as Homo sapiens) [SEQ ID NO: 27]”: the “Peptide Exchange” value is given as ““+++” (≥50 = +++)”.

For the sequence “ALNPVIYTV (listed as Homo sapiens) [SEQ ID NO: 5]”, the “Peptide Exchange” value is listed as ““++” (≥20% = ++)”.

As to “SMMGLLTNL (listed as Homo sapiens) [SEQ ID NO: 16]”, the “Peptide Exchange” value is listed as ““++++” (≥75% = ++++)”.

For the sequence “ALEAUQLYL (ALEA[pT]QLYL; listed as Homo sapiens) [SEQ ID NO: 29, U = phospho-threonine]”, the “Peptide Exchange” value is listed as ““+++” (≥50 = +++)”.

For the sequence “SLVEGEAVHLA (listed as Homo sapiens) [SEQ ID NO: 4]”, the “Peptide Exchange” value was ““++” (≥20% = ++)”.

Consider “SLLSEIQAL (listed as Homo sapiens) [SEQ ID NO: 35]”, for which the “Peptide Exchange” value is ““++++” (≥75% = ++++)”.

For “SLAWDVPAA (listed as Homo sapiens) [SEQ ID NO: 26]”, the “Peptide Exchange” value is ““+++” (≥50 = +++)”.

As for “GLVATLQSL (listed as Homo sapiens) [SEQ ID NO: 32]”, the “Peptide Exchange” value is ““+++” (≥50 = +++)”.

Regarding “KMPEHISTV (listed as Homo sapiens) [SEQ ID NO: 1]”, the “Peptide Exchange” value was ““+++” (≥50 = +++)”.

For “SLLTEPALV (listed as Homo sapiens) [SEQ ID NO: 21]”, the “Peptide Exchange” value is recorded as ““+++” (≥50 = +++)”.

“ALTALQNYL (listed as Homo sapiens) [SEQ ID NO: 6]”: the “Peptide Exchange” value is recorded as ““+++” (≥50 = +++)”.

On to “YILLQSPQL (listed as Homo sapiens) [SEQ ID NO: 18]”, for which the “Peptide Exchange” value was ““+++” (≥50 = +++)”.

“GLVQSLTSI (listed as Homo sapiens) [SEQ ID NO: 8]”: the “Peptide Exchange” value is listed as ““++++” (≥75% = ++++)”.

Regarding “SLADAVEKV (listed as Homo sapiens) [SEQ ID NO: 23]”, the “Peptide Exchange” value was ““+++” (≥50 = +++)”.

On to “KAFPFYNTV (listed as Homo sapiens) [SEQ ID NO: 12]”, for which the “Peptide Exchange” value was ““++” (≥20% = ++)”.

For “FIIPTVATA (listed as Homo sapiens) [SEQ ID NO: 7]”, the “Peptide Exchange” value is ““++++” (≥75% = ++++)”.

As for “FLVEHVLTL (listed as Homo sapiens) [SEQ ID NO: 42]”, the “Peptide Exchange” value is recorded as ““++++” (≥75% = ++++)”.

For “TIASSIEKA (listed as Homo sapiens) [SEQ ID NO: 17]”, the “Peptide Exchange” value is listed as ““++” (≥20% = ++)”.

In the case of “GLHSLPPEV (listed as Homo sapiens) [SEQ ID NO: 10]”, the “Peptide Exchange” value was ““+++” (≥50 = +++)”.

For “SLFPSLVVV (listed as Homo sapiens) [SEQ ID NO: 15]”, the “Peptide Exchange” value is recorded as ““+++” (≥50 = +++)”.

Consider “GLSYIYNTV (listed as Homo sapiens) [SEQ ID NO: 31]”, for which the “Peptide Exchange” value was ““++” (≥20% = ++)”.

In the case of “SLFSVPFFL (listed as Homo sapiens) [SEQ ID NO: 28]”, the “Peptide Exchange” value was ““++++” (≥75% = ++++)”.

“GLLGFQAEA (listed as Homo sapiens) [SEQ ID NO: 24]”: the “Peptide Exchange” value is given as ““++++” (≥75% = ++++)”.

For “FMSKLVPAI (listed as Homo sapiens) [SEQ ID NO: 9]”, the “Peptide Exchange” value is listed as ““+++” (≥50 = +++)”.

“GLLPTSVSPRV (listed as Homo sapiens) [SEQ ID NO: 11]”: the “Peptide Exchange” value is recorded as ““++” (≥20% = ++)”.

As for “ALEEQLHQV (listed as Homo sapiens) [SEQ ID NO: 19]”, the “Peptide Exchange” value is ““++” (≥20% = ++)”.

For the sequence “LLMUVAGLKL (LLM[pT]VAGLKL; listed as Homo sapiens) [SEQ ID NO: 38, U = phospho-threonine]”, the “Peptide Exchange” value is ““++++” (≥75% = ++++)”.

As for “SLNDQGYLL (listed as Homo sapiens) [SEQ ID NO: 41]”, the “Peptide Exchange” value is listed as ““+++” (≥50 = +++)”.

As for “FLSSEAANV (listed as Homo sapiens) [SEQ ID NO: 30]”, the “Peptide Exchange” value is given as ““++” (≥20% = ++)”.

As to “KLYEGIPVL (listed as Homo sapiens) [SEQ ID NO: 13]”, the “Peptide Exchange” value is ““++” (≥20% = ++)”.

On to “FLDEEVKLI (listed as Homo sapiens) [SEQ ID NO: 43]”, for which the “Peptide Exchange” value is on record as ““+++” (≥50 = +++)”.

In the case of “KLLDMELEM (listed as Homo sapiens) [SEQ ID NO: 39]”, the “Peptide Exchange” value is ““++++” (≥75% = ++++)”.
